Results from patent US20240190987A1, “Engineered EpCam Binding Antibodies” (TigaTX, priority 2021, published 2024).

Assay: Differential scanning fluorimetry (DSF) melting temperature
Assay type: physicochemical
Method: DSF was performed on a LC480 Lightcycler Instrument II (Roche). Purified recombinant protein was diluted to 5 μM in DSF buffer (PBS, pH 7.4, Sypro Orange 5×) with small molecule (10 μM VTX) or vehicle (0.05% DMSO) and then heated with a temperature gradient (0.01° C./s) from 25 to 95° C. Data were continuously acquired at ˜465 nm (excitation) and ˜580 nm (emission). Data was analyzed to generate first derivative curves in which the curve maximum was reported as the melting temperature of the protein.

[1] = thermostability by DSF, Table 26

Molecule	TM (° C.) [1] [°C]	further results
Ab0898: humanized LS2A R2M34 (antibody, light chain not cited; REGION 1..472: note = Ab0898 HC, humanized LS2A R2M34) heavy: QVQLVQSGAEVKKPGASVKVSCKASGYTFTSYWMHWVRQHPGQGLEWMGIIHPNSGGTSYAQKFQGRVTMTRDTSTSTVYMELSSLRSEDTAVYYCAMGDYVSRDYWGQGTLVTVSSGGGGSGGGGSGGGGSEIVLTQSPGTLSLSPGERATLSCRASSSVSSSYLHWYQQKPGQAPRLLIYSTSSRATGIPDRFSGSGSGTDFTLTISRLEPEDFAVYYCQQYSGYQFTFGQGTKLEIKGGGGSDKTHTCPPCPAPEAAGGPSVFLFPPKPKDTLMISRTPEVTCVVVDVSHEDPEVKFNWYVDGVEVHNAKTKPREEQYNSTYRVVSVLTVLHQDWLNGKEYKCKVSNKALGAPIEKTISKAKGQPREPQVYTLPPSRDELTKNQVSLTCLVKGFYPSDIAVEWESNGQPENNYKTTPPVLDSDGSFFLYSKLTVDKSRWQQGNVFSCSVMHEALHNHYTQKSLSLSPGK		TM (° C.) (scFv-Fc format, LS2A R3 (Table 20)): 52.5 °C
Ab0785: LS2A R2M34 Fab, His-Tag, Avi-Tag (antibody, V domains shown) VH: QVQLVQSGAEVKKPGASVKVSCKASGYTFTSYWMHWVRQHPGQGLEWMGIIHPNSGGTSYAQKFQGRVTMTRDTSTSTVYMELSSLRSEDTAVYYCAMGDYVSRDYWGQGTLVTVSS VL: EIVLTQSPGTLSLSPGERATLSCRASSSVSSSYLHWYQQKPGQAPRLLIYSTSSRATGIPDRFSGSGSGTDFTLTISRLEPEDFAVYYCQQYSGYQFTFGQGTKLEIK		TM (° C.) (Table 19): 70.9 °C
Ab0788: LS2A R3M3 Fab, HC: S58N on R2M34 (antibody) heavy: QVQLVQSGAEVKKPGASVKVSCKASGYTFTSYWMHWVRQHPGQGLEWMGIIHPNSGGTNYAQKFQGRVTMTRDTSTSTVYMELSSLRSEDTAVYYCAMGDYVSRDYWGQGTLVTVSSASTKGPSVFPLAPSSKSTSGGTAALGCLVKDYFPEPVTVSWNSGALTSGVHTFPAVLQSSGLYSLSSVVTVPSSSLGTQTYICNVNHKPSNTKVDKKVEPKSCGGGGSHHHHHHGGGGSGLNDIFEAQKIEWHEG VL: EIVLTQSPGTLSLSPGERATLSCRASSSVSSSYLHWYQQKPGQAPRLLIYSTSSRATGIPDRFSGSGSGTDFTLTISRLEPEDFAVYYCQQYSGYQFTFGQGTKLEIK		TM (° C.) (Table 19): 70.1 °C
Ab1018: anti-EpCAM binding domain, FIGS. 8A-8C (antibody, V domains shown) VH: EVQLVESGGGLVQPGGSLRLSCAASGFTFSNYWMNWVRQAPGKGLEWVAQIRVKSENFATHYADSVKGRFTISRDDSKSTVYLQMNSLRAEDTAVYYCTLYEGFSWGQGTLVTVSS VL: DIQMTQSPSSLSASVGDRVTITCSASSSVSSGNFHWYQQKPGKAPKLLIYRTSNLASGVPSRFSGSGSGTDYTLTISSLQPEDFATYYCQQWSGYPYTFGQGTKVEIK	69.9	
Ab1065 (antibody, V domains shown) VH: EVQLVESGGGLVQPGGSLRLSCAASGFTFSNYWMNWVRQAPGKGLEWVAQIRVKSENFATHYADSVKGRFTISRDDSKSTVYLQMNSLRAEDTAVYYCTLYEGFSWGQGTLVTVSS VL: DIQMTQSPSSLSASVGDRVTITCSASSSVSSGNFHWYQQKPGKAPKLLIYRTSNLASGVPSRFSGSGSGTDYTLTISSLQPEDFATYYCQQASGYPYTFGQGTKVEIK	72.3	
Ab1024: anti-EpCAM binding domain, FIGS. 8A-8C (antibody, V domains shown) VH: EVQLVESGGGLVQPGGSLRLSCAASGFTFSNYWMNWVRQAPGKGLEWVAQIRVKSENFATHYVDSVKGRFTISRDDSKSTVYLQMNSLRAEDTAVYYCTLYDGFSWGQGTLVTVSS VL: DIQMTQSPSSLSASVGDRVTITCSASSSVSSGNFHWYQQKPGKAPKLLIYRTSNLASGVPSRFSGSGSGTDYTLTISSLQPEDFATYYCQQWSGYPYTFGQGTKVEIK	73.2	
Ab1020: anti-EpCAM binding domain, FIGS. 8A-8C (antibody, V domains shown) VH: EVQLVESGGGLVQPGGSLRLSCAASGFTFSNYWMHWVRQAPGKGLEWVAQIRVKSENFATHYADSVKGRFTISRDDSKSTVYLQMNSLRAEDTAVYYCTLYDGFSWGQGTLVTVSS VL: DIQMTQSPSSLSASVGDRVTITCSASSSVSSGNFHWYQQKPGKAPKLLIYRTSNLASGVPSRFSGSGSGTDYTLTISSLQPEDFATYYCQQWSGYPYTFGQGTKVEIK	68	
Ab1022: anti-EpCAM binding domain, FIGS. 8A-8C (antibody, V domains shown) VH: EVQLVESGGGLVQPGGSLRLSCAASGFTFSNYWMNWVRQHPGKGLEWVAQIRVKSENFATHYADSVKGRFTISRDDSKSTVYLQMNSLRAEDTAVYYCTLYDGFSWGQGTLVTVSS VL: DIQMTQSPSSLSASVGDRVTITCSASSSVSSGNFHWYQQKPGKAPKLLIYRTSNLASGVPSRFSGSGSGTDYTLTISSLQPEDFATYYCQQWSGYPYTFGQGTKVEIK	69.6	
Ab1026: anti-EpCAM binding domain, FIGS. 8A-8C (antibody, V domains shown) VH: EVQLVESGGGLVQPGGSLRLSCAASGFTFSNYWMNWVRQAPGKGLEWVAQIRVKSENFATHYADSVKGRFTISRDDSKSTVYLQMNSLRAEDTAVYYCTLYDGFSWGQGTLVTVSS VL: DIQMTQSPSSLSASVGDRVTITCSASSSVSSGNFHWYQQKPGKAPKLLIYRTSNLASGVPSRFSGSGSGTDYTLTISSLQPEDFATYYCQQASGYPYTFGQGTKVEIK	69.1	
Ab1066: anti-EpCAM binding domain, FIGS. 8A-8C (antibody, V domains shown) VH: EVQLVESGGGLVQPGGSLRLSCAASGFTFSNYWMNWVRQAPGKGLEWVAQIRVKSENFATHYADSVKGRFTISRDDSKSTVYLQMNSLRAEDTAVYYCTLYDAFSWGQGTLVTVSS VL: DIQMTQSPSSLSASVGDRVTITCSASSSVSSGNFHWYQQKPGKAPKLLIYRTSNLASGVPSRFSGSGSGTDYTLTISSLQPEDFATYYCQQASGYPYTFGQGTKVEIK	70.4	
Ab0775: anti-CD3 binding domain, FIGS. 7A-7C (antibody, light chain not cited; REGION 1..482: note = Ab0775 HC) heavy: EVQLVESGGGLVQPGGSLRLSCAASGFTFNTYAMNWVRQAPGKGLEWVGRIRSKYNNYATYYADSVKGRFTISRDDSKSILYLQMNSLRAEDTAVYYCVRHGNFGNSYVSWFAYWGQGTLVTVSSGGGGSGGGGSGGGGSDIQVTQSPSSLSASVGDRVTITCRSSTGAVTTSNYANWVQQKPGKAFKGLIGGTNKRAPGVPSRFSGSLSGDDATLTISSLQPEDFATYYCALWYSNLWVFGQGTKLEIKGGGGSDKTHTCPPCPAPEAAGGPSVFLFPPKPKDTLMISRTPEVTCVVVDVSHEDPEVKFNWYVDGVEVHNAKTKPREEQYNSTYRVVSVLTVLHQDWLNGKEYKCKVSNKALGAPIEKTISKAKGQPREPQVYTLPPSRDELTKNQVSLTCLVKGFYPSDIAVEWESNGQPENNYKTTPPVLDSDGSFFLYSKLTVDKSRWQQGNVFSCSVMHEALHNHYTQKSLSLSPGK		TM (° C.) (DSF, hSP34v68 R1 variants (Table 23)): 64.1 °C
